Results: US20140377324A1, “Pharmaceutical Composition Comprising miRNA-100 And Its Use In The Modulation of Blood Vessel Growth and Endothelial Inflammation” (Universitatsklinikum Freiburg, priority 2009, published 2014)

How the values were obtained:
miR-100 = miR-100 level by quantitative stem-loop RT-PCR after pre-miR/anti-miR transfection; format: cell-based, human; conditions: 24 h following transfection; vs irrelevant-sequence controls; FIG. 2
From the text: To verify the expression of miR-100 in pure cell populations of the vascular wall, stem-loop RT-PCR was used for total RNA-isolates from cultured human endothelial cells (HUVECs) and human aortic vascular smooth muscle cells.
MicoRNA expression was validated by quantitative stem-loop PCR technology (TaqMan MicroRNA Assays, Applied Biosystems, Foster City, Calif.). The use of target-specific reverse transcription primers and TaqMan hybridization probes allows the specific detection of mature microRNAs. MicroRNA expression was normalized to the expression of the small RNAs rnu19 and rnu48.
miR-100 was strongly expressed in both cell types. To investigate a potential role of miR-100 for angiogenesis, miR-100 was overexpressed and silenced in these cell types by transfecting specific miR-100 precursors (pre-miRs) or antisense-molecules (anti-miRs), respectively. […] Pre- and anti-miRs with an irrelevant nucleotide sequence served as negative controls. There was no significant difference in cellular viability following transfection with the different compounds.
For transfection with pre-miR microRNA precursor molecules or anti-miRmiRNA inhibitors (all Ambion), cells were cultured to 70% confluence and transfected with 8nM pre-miR-100 or anti-miR-100 oligonucleotides using Lipofectamin RNAiMax (invitrogen) according to the manufacturers instructions. […]

endothelial cells [1] = assay: planar matrigel assay, endothelial network formation; format: cell-based, human
endothelial cells [2] = assay: three-dimensional spheroid culture assay, endothelial sprouting; format: cell-based, human
endothelial cells [3] = assay: flow cytometric quantification of Annexin V-staining (apoptosis); format: cell-based, human; conditions: compared to irrelevant control sequence, FIG. 3
From the text: (§1) To assess whether the observed differences were secondary to effects on cellular viability, endothelial cell apoptosis and proliferation following miR-100 modulation was checked. […] DNA-synthesis rate was further analyzed by measuring BrdU-Incorporation, which correlates well with cellular proliferation.

endothelial cells [4] = assay: BrdU-Incorporation (proliferation), endothelial cells; format: cell-based, human; conditions: FIG. 3
From the text: as §1

[5] = tested on: vascular smooth muscle cells; assay: BrdU-Incorporation (proliferation), smooth muscle cells; format: cell-based, human; conditions: FIG. 4
mTOR = mTOR expression in endothelial cells after miR-100 modulation; format: cell-based, human; conditions: FIG. 5
Description: The binding site of miR-100 in the 3′-UTR of mTOR is shown in (FIG. 6.) In FIG. 6 the sequence designated hsa-miR-100 corresponds to SEQ ID NO:1 and the sequence having the designation mTOR 3′UTR corresponds to SEQ ID NO:7.
(§2) For transfection with pre-miR microRNA precursor molecules or anti-miRmiRNA inhibitors (all Ambion), cells were cultured to 70% confluence and transfected with 8nM pre-miR-100 or anti-miR-100 oligonucleotides using Lipofectamin RNAiMax (invitrogen) according to the manufacturers instructions. For transfection of HEK293 cells with mTOR plasmids, 2 μg DNA per 3×10E5 cells was transfected with Fugene 6 transfection reagent (Roche). For double transfection of plasmids with miRNA-precursors and inhibitors, pre- and anti-miRs were added to the plasmid/Fugene transfection mix in the same final concentrations as stated above. mTOR (Acc. NM004958) full length (SKU SC124066) and ORF-constructs (SKU RC220457) were obtained from the Origene collection (Origene, Rockville, Md.).

mTOR (FRAP1-gene) = assay: microarray based gene expression analysis of endothelial cells following miR-100 overexpression (mTOR); format: cell-based, human
From the text: Using a combination of bioinformatic prediction algorithms and microarray based gene expression analysis of endothelial cells following miR-100 overexpression, it was searched for potential target genes of miR-100 that could be responsible for the observed effects.

HEK293 cells = assay: HEK cell proliferation, rescue-experiment with mTOR plasmids; format: cell-based, human; conditions: 8nM oligonucleotide; FIG. 7
Description: To investigate if the repression of mTOR was responsible for the observed attenuation of cellular proliferation by miR-100, a rescue-experiment was performed by transfecting mTOR-coding plasmids in combination with pre-miR-100.
as §2
Due to the large plasmid size of mTOR, it was not possible to achieve a sufficient transfection rate in endothelial cells without procedure-related toxic effects and therefore the easily transfected HEK-cells were chosen as a culture model, where the miR-100 effects on proliferation seen in endothelial cells could be reproduced (FIG. 7).

E-Selectin (SELE) = assay: Agilent microarray after miR-100 overexpression in endothelial cells, E-Selectin; format: cell-based, human; conditions: 48 hours after transfection vs control oligonucleotide, FIG. 12
Description: (§3) After discovering the high baseline expression of miR-100 in endothelial cells and its downregulation in response to vascular injury and ischemia, the function of this microRNA in endothelial cells (EC) was investigated. Therefore, miR-100 was overexpressed in EC by transfecting a synthetic miR-100 precursor molecule (pre-mir) and analysed global mRNA gene expression changes compared to transfection with a control oligonucleotide at 48 hours after transfection on a human Agilent 4×44 k microarray platform.
(§4) Microarray results were analysed both on individual gene level as well as by biological pathway analysis using the “Panther Pathways Analysis” Tool that tests changes in gene expression for enrichment of specific biological pathways or cellular functions.
(§5) Endothelial cells were transfected with miR-100 precursor oligonucleotides. Total RNA was isolated after 48 h for microarray analysis of global gene expression.

VCAM-1 [6] = assay: Agilent microarray after miR-100 overexpression in endothelial cells, VCAM-1; format: cell-based, human; conditions: 48 hours after transfection vs control oligonucleotide, FIG. 12
Description: as §3, §4, §5

VCAM-1 [7] = assay: VCAM-1 mRNA expression in endothelial cells (Taqman PCR); format: cell-based, human; conditions: vs scrambled premiR control; FIG. 13
Description: (§6) Human endothelial cells were transfected with premiR-100 and scrambled premiR control oligonucleotides. After RNA isolation, the relative expression rate of the mRNA of different adhesion molecules was measured using the Stem loop Taqman PCR (P value≦0.005).

ICAM-1 [8] = assay: ICAM-1 mRNA expression in endothelial cells (Taqman PCR); format: cell-based, human; conditions: vs scrambled premiR control; FIG. 13
Description: as §6

E-Selectin [9] = assay: E-Selectin mRNA expression in endothelial cells (Taqman PCR); format: cell-based, human; conditions: vs scrambled premiR control; FIG. 13
Description: as §6

VCAM-1 [10] = assay: VCAM-1 protein expression in endothelial cells (Western blot); format: cell-based, human
Description: (§7) MiRNA-100 was overexpressed in human endothelial cells followed by protein isolation. Using Western blots, the protein expression of VCAM-1, ICAM-1 and E-Selectin was determined. FIGS. 14A and B show the ratio between volume intensity of the protein-samples and the loading control (β-tubulin) for [A] the baseline expression and [B] the expression after 24 h TNF-α stimulation.

ICAM-1 [11] = assay: ICAM-1 protein expression in endothelial cells (Western blot); format: cell-based, human
Description: as §7

E-Selectin [12] = assay: E-Selectin protein expression in endothelial cells (Western blot); format: cell-based, human
Description: as §7

HUVECs / human PBMCs = assay: Leukocyte-HUVEC interaction under flow conditions (flow chamber); format: cell-based; conditions: TNF-alpha 30 ng/ml for 24 h, flow 1 dyn/cm^2; FIG. 15
Description: HUVECs were grown to confluence, transfected with either anti-miR-100 or pre-Mir-100 oligonucelotides or scrambled controls and stimulated with TNF-alpha 30 ng/ml for 24 h. Human PBMCs (HPBMCs) were obtained from buffy coats of healthy donors by Ficoll-Hypaque density gradient centrifugation. The flow chamber was assembled and placed onto an inverted microscope stage, and freshly isolated HPBMCs (1×10^6/ml) were perfused across the endothelial monolayers. In all experiments, leukocyte interactions were determined over 105 min at 1 dyn/cm^2. Cells interacting on the surface of the endothelium were visualized and recorded using phase-contrast microscopy.
To test if this change in expression results in a functional difference in leukocyte rolling and adhesion to the endothelial surface, the attachment of isolated peripheral blood mononuclear cells (PBMC) to transfected endothelial cells was investigated under physiologic flow conditions in a flow chamber apparatus.
A physiological venous blood flow (1 dynes/cm^2) was induced by a flow chamber apparatus and the number of rolling or adherent peripheral blood mononuclear cells (PBMCs) was counted.

[13] = tested on: cultured cancer cells (oral squamous cell carcinoma); conditions: Henson et al. 2009; cited from earlier work
[14] = after 24 h TNF-α stimulation, FIG. 14B

B1: pre-miR-100: synthetic miR-100 precursor molecule, SEQ ID No. 8, used to overexpress miR-100; processed to mature miRNA-100 (SEQ ID No: 9) (nucleic acid)
chain: CCUGUUGCCACAAACCCGUAGAUCCGAACUUGUGGUAUUAGUCCGCACAAGCUUGUAUCUAUAGGUAUGUGUCUGUUAGG
modifications: listed as RNA, chemistry not given here
- detectable miR-100 (relative miR-100 expression) (miR-100): strong increase in detectable miR-100
- endothelial network formation (endothelial cells [1]): significant inhibitory effect
- endothelial sprouting (total sprout length) (endothelial cells [2]): significant inhibitory effect
- endothelial cell apoptosis (endothelial cells [3]): slight increase in endothelial cell apoptosis
- endothelial cell proliferation (DNA-synthesis rate) (endothelial cells [4]): significant attenuation of endothelial cell proliferation
- inhibitory effect on proliferation, smooth muscle cells compared with endothelial cells [5]: more pronounced in endothelial cells than in smooth muscle cells
- mTOR-expression on both mRNA as well as protein level (mTOR): significantly repressed
- mTOR (FRAP1) gene expression (mTOR (FRAP1-gene)): downregulated
- cell proliferation of HEK cells (HEK293 cells): anti-proliferative effect
- E-Selectin (SELE) gene expression (E-Selectin (SELE)): strong downregulation
- VCAM-1 gene expression (VCAM-1 [6]): strong downregulation
- VCAM-1 mRNA relative expression (VCAM-1 [7]): decrease
- ICAM-1 mRNA relative expression (ICAM-1 [8]): decrease
- E-Selectin mRNA relative expression (E-Selectin [9]): decrease
- VCAM-1 protein, upregulation after TNF-α stimulation (VCAM-1 [10]; [14]): blunts the upregulation in response to inflammatory stimuli
- VCAM-1 protein, baseline expression (VCAM-1 [10]; ratio to β-tubulin, FIG. 14A): decreases baseline expression
- ICAM-1 protein, upregulation after TNF-α stimulation (ICAM-1 [11]; [14]): blunts the upregulation in response to inflammatory stimuli
- ICAM-1 protein, baseline expression (ICAM-1 [11]; ratio to β-tubulin, FIG. 14A): decreases baseline expression
- E-Selectin protein, upregulation after TNF-α stimulation (E-Selectin [12]; [14]): blunts the upregulation in response to inflammatory stimuli
- E-Selectin protein, baseline expression (E-Selectin [12]; ratio to β-tubulin): decreases baseline expression
- leukocyte (PBMC) adhesion to transfected endothelial cells (HUVECs / human PBMCs): significantly attenuates leukocyte adhesion
- cell proliferation [13]: significantly reduced cell proliferation
